Here are results for 3 substances from patent US20070071744A1.

Assay [1] deals with T1, peptide 7 (human).
T1 sequence (peptide, N-terminus acetylated): LCLGRVPAQSGPL
Briefly: PepSpot peptide array, control incubation.

Assay [2] deals with T2, peptide 117 (human).
T2 sequence (peptide, N-terminus acetylated): SFTNKVFTTETSR
The assay is described as follows: PepSpot peptide array, control incubation.

The target of assay [3] is T3, peptide 118 (human).
T3 sequence (peptide, N-terminus acetylated): TNKVFTTETSRSI
The assay is described as follows: PepSpot peptide array, control incubation.

Assay [4] concerns the target mouse GPVI on mouse platelets (mouse) (UniProt P0C191). Briefly: cell-based or functional assay.
In assay [5] the target is Fc-GPVI-nt (immunoadhesin: extracellular domain of human GPVI fused via Gly-Gly-Arg to human IgG Fc, dimer) (human). The assay is described as follows: competition ELISA, immobilized collagen as competitor. (ELISA stands for enzyme-linked immunosorbent assay.)
Sequence of Fc-GPVI-nt (immunoadhesin: extracellular domain of human GPVI fused via Gly-Gly-Arg to human IgG Fc, dimer) (human) (chain, as listed by the source limits assumed): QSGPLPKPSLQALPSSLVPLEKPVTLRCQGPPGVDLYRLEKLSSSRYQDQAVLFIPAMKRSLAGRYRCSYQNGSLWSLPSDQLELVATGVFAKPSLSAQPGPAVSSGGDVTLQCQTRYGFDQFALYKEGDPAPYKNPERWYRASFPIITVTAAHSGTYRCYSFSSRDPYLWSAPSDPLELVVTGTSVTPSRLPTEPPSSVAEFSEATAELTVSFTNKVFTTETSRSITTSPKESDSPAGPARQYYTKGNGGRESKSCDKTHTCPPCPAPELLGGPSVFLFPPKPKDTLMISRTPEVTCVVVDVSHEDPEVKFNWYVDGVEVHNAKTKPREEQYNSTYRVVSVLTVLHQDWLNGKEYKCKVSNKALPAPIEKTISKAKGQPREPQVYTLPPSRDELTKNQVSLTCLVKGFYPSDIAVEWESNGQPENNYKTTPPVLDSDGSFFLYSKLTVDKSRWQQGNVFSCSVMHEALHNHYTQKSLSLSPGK

Several values for one entry are separate records, joined by “and”; a condition that tells them apart may be missing. Equal values may be shown once.

Sequence of mouse GPVI on mouse platelets (mouse) (P0C191 22-313): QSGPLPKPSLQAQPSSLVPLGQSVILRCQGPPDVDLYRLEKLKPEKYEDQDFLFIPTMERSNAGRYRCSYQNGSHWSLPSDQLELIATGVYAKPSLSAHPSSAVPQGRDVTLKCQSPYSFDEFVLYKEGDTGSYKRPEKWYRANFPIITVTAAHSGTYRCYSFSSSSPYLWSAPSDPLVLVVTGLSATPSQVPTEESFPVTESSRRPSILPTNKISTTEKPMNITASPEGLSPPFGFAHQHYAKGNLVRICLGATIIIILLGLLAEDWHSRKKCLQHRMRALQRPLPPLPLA

Take anti-rat-HRP (Sigma A9037) (antibody): the results for the LU (Light Units) in assay [1], in assay [2] and in assay [3] were 239 LU, 377 LU and 354 LU, respectively.
Take monoclonal antibody anti GPVI (JAQ1): in assay [4], the ATP release came to 1.09 nM ATP; the platelet aggregation of mouse platelet-rich plasma after stimulation with 2 µg collagen/ml is 2% and 1.5%.
“soluble collagen (solubilized fibrillar collagen) (ligand)” returned a concentration required to reduce Fc-GPVI-nt binding by more than 50% in assay [5] of 100 µg/mL.
